# Measurements reported in article PMC3170320, “Minimal Antizyme Peptide Fully Functioning in the Binding and Inhibition of Ornithine Decarboxylase and Antizyme Inhibitor” (PLoS ONE, 2011).
# B1: AZ-3: AZ isozyme 3, germ cells of testes (protein, UniProt Q9UMX2 1-235, looked up)
# Ornithine decarboxylase …: MPCKRCRPSVYSLSYIKRGKTRNYLYPIWSPYAYYLYCYKYRITLREKMLPRCYKSITYKEEEDLTLQPRSCLQCSESLVGLQEGKSTEQGNHDQLKELYSAGNLTVLATDPLLHQDPVQLDFHFRLTSQTSAHWHGLLCDRRLFLDIPYQALDQGNRESLTATLEYVEEKTNVDSVFVNFQNDRNDRGALLRAFSYMGFEVVRPDHPALPPLDNVIFMVYPLERDVGHLPSEPP
# B2: AZ-2: AZ isozyme 2, distribution similar to AZ-1, lower expression level (protein, UniProt O95190 1-189, looked up)
# Ornithine decarboxylase …: MINTQDSSILPLSNCPQLQCCRHIVPGPLWCSDAPHPLSKIPGGRGGGRDPSLSALIYKDEKLTVTQDLPVNDGKPHIVHFQYEVTEVKVSSWDAVLSSQSLFVEIPDGLLADGSKEGLLALLEFAEEKMKVNYVFICFRKGREDRAPLLKTFSFLGFEIVRPGHPCVPSRPDVMFMVYPLDQNLSDED
# B3: Antizyme inhibitor (protein)
# chain: MKGFIDDANYSVGLLDEGTNLGNVIDNYVYEHTLTGKNAFFVGDLGKIVKKHSQWQNVVAQIKPFYTVKCNSAPAVLEILAALGTGFACSSKNEMALVQELGVPPENIIYISPCKQVSQIKYAAKVGVNILTCDNEIELKKIARNHPNAKVLLHIATEDNIGGEEGNMKFGTTLKNCRHLLECAKELDVQIIGVKFHVSSACKESQVYVHALSDARCVFDMAGEIGFTMNMLDIGGGFTGTEFQLEEVNHVISPLLDIYFPEGSGVKIISEPGSYYVSSAFTLAVNIIAKKVVENDKFPSGVEKTGSDEPAFMYYMNDGVYGSFASKLSEDLNTIPEVHKKYKEDEPLFTSSLWGPSCDELDQIVESCLLPELNVGDWLIFDNMGADSFHEPSAFNDFQRPAIYYMMSFSDWYEMQDAGITSDSMMKNFFFVPSCIQLSQEDSFSAEA
# modifications: left off: His6, N-terminal, state not stated
# Assays:
# ODC = settings: cited from earlier work
# Source text: (§1) There are at least four AZ isozymes with different binding affinities for ODC [31]–[32]. Isoform 1, AZ-1, is present in all tissues and is the major isoform that participates in ODC degradation. […] The C-terminal region of AZ-1 interacts with ODC to inhibit enzyme activity, and the N-terminal region of AZ-1 controls the degradation of ODC [34]–[36]. AZ-2 has a distribution similar to that of AZ-1 in all of the tissues and cells examined thus far, but its expr ...
# ODC degradation = settings: cited from earlier work
# Source text: as §1
# AZ = settings: ref [20], [46]–[48]; cited from earlier work
# Source text: Another protein that regulates ODC by binding to AZ is called antizyme inhibitor (AZI). AZI is homologous to ODC, but lacks ODC enzymatic activity, [43]–[46]. […] AZI can bind to all isoforms of mammalian AZ [32], [42].
# AZ peptide-inhibited ODC = assay: Rescue of AZ-inhibited ODC enzyme activity by AZI; type: biochemical, human; settings: Figure 4
# Experimental: Figure 4 Relative ODC enzyme activities in the presence of AZ and AZI. ODC enzymes equilibrated with equimolar AZI were inhibited by various concentrations of AZ peptides. The concentrations of AZI and ODC were fixed at 18.9 µg/mL and 20 µg/mL, respectively (the ratio of AZI monomer versus ODC monomer was fixed at 1). Panels A–H show the inhibition curves of ODC for each AZ peptide in the absence (closed circles) and in the presence (open circles) of AZI.
# For enzyme rescue experiments with AZI, the ODC enzyme was first pre-incubated with AZ at a molar ratio of 3.5 AZ monomers to 1 ODC monomer to achieve 80% enzyme inhibition. The inhibited ODC activity was recovered by increasing the AZI concentration.
# human AZI = assay: AZ peptide-AZI complex size distribution by analytical ultracentrifugation; type: binding; settings: Table 2
# Experimental: A Beckman Optima XL-A analytical ultracentrifuge was used for sedimentation velocity experiments. Reference and sample sectors in the centerpiece were filled with buffer (400 µl) and sample protein (0.3 mg/mL, 380 µl), respectively, and then the cell was built up in an An-50 Ti rotor. Sedimentation velocity experiments were performed at 20°C with a rotor speed of 42,000 rpm. The data were traced by absorbance at 280 nm in continuous mode, with a time interval of 420 s and a step size of 0.002 cm. A total of 20–30 scans at different time points were collected and fitted to a continuous size distribution model using the program SEDFIT [54]–[55]. All size distributions were calculated at 0.1 to 20 S with a confidence level of p = 0.95 and a resolution N of 200.
# In order to determine the dissociation constants (K d) of the AZ peptide-ODC and AZ peptide-AZI complexes, sedimentation velocity experiments were performed at different concentrations of AZ or AZ peptide with a constant concentration of human ODC or AZI. The K d values of the AZ peptide-ODC and AZ peptide-AZI complexes were calculated by a global fitting of all sedimentation data in the AB hetero-association model in the SEDPHAT program [56]–[57]. The partial specific volumes of the proteins, the solvent densities, and the viscosity were calculated by the SEDNTERP program. […]
molecule,measurement,setting,value
B1,"Inhibition of ODC activity, AZ-3",ODC; ref [41],poorly inhibits ODC activity
same,"ODC degradation, AZ-3",ODC degradation; ref [41],fails to stimulate ODC degradation
B2,"Inhibition of ODC activity, AZ-2",ODC; ref [38]–[39],can inhibit ODC enzyme activity
same,"ODC degradation, AZ-2",ODC degradation; ref [38]–[39],does not promote ODC degradation
B3,Affinity of AZI for AZ,AZ,binds to AZ with a higher affinity than ODC
same,Rescue of ODC enzyme activity by AZI (in words),AZ peptide-inhibited ODC,can rescue AZ peptide-inhibited ODC enzyme activity
same,Affinity of AZI for AZ peptides versus ODC (in words),human AZI,can bind to AZ peptides with a higher affinity than ODC
